Test results taken from US20180194839A1 (Novartis, published 2018).

T1: recombinant mouse IL-17A/F (R&D Systems Cat#5390-IL) (mouse, UniProt Q62386 26-158; Q7TNI7 29-161, limits assumed)
T1 sequence (looked up) 1: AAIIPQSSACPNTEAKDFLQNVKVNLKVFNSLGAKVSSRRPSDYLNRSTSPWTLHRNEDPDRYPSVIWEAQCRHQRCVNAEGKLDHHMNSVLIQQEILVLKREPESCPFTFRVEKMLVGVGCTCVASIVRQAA
T1 sequence (looked up) 2: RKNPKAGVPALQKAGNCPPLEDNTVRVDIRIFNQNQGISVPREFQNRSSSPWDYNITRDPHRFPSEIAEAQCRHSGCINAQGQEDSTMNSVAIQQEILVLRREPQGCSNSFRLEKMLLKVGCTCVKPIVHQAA

T2: recombinant mouse IL-17F (SEQ ID NO: 84) (mouse, UniProt Q7TNI7 29-161)
T2 sequence: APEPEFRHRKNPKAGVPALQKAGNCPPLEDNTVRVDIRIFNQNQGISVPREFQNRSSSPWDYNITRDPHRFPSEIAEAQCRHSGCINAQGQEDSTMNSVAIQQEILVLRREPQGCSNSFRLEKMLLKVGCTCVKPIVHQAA

T3: recombinant mouse IL-17A (SEQ ID NO: 83) (mouse, UniProt Q62386 26-158)
T3 sequence: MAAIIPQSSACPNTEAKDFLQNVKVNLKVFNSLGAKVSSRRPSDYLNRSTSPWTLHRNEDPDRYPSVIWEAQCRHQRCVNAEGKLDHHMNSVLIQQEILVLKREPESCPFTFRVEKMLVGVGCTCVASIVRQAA

T4: recombinant rat IL-17A (SEQ ID NO: 85) (rat, UniProt Q61453 18-150)
T4 sequence: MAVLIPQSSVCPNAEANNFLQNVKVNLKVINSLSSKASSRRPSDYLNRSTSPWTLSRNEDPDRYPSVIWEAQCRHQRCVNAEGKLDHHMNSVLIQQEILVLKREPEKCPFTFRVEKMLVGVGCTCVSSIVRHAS

T5: recombinant human IL-17E (R&D Systems Cat#1258-IL/CF) (human, UniProt Q9H293 33-177)
T5 construct: also called huIL-17E; hu IL-17E
T5 sequence (looked up): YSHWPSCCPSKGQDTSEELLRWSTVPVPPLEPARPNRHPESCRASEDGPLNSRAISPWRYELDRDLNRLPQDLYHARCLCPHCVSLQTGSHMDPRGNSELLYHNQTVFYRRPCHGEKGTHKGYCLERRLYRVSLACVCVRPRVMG

T6: recombinant human IL-17C (R&D Systems Cat#1234IL/CF) (human, UniProt Q9P0M4 19-197)
T6 construct: also called huIL-17C; hu IL-17C
T6 sequence (looked up): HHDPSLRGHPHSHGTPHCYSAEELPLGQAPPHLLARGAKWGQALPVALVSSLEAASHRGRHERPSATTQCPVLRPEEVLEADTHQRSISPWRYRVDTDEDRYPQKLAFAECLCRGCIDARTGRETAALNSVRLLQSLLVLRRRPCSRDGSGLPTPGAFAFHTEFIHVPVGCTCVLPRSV

T7: recombinant human IL-17B (R&D Systems) (human, UniProt Q9UHF5 21-180)
T7 construct: also called huIL-17B; hu IL-17B
T7 sequence (looked up): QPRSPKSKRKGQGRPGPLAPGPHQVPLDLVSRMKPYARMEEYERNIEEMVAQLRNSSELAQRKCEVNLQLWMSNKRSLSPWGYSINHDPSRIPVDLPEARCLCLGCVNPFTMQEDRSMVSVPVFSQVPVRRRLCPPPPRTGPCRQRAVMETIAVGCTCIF

T8: recombinant human IL-17D (R&D Systems Cat#1504IL/CF) (human, UniProt Q8TAD2 18-202, limits assumed)
T8 construct: also called huIL-17D; hu IL-17D
T8 sequence (looked up): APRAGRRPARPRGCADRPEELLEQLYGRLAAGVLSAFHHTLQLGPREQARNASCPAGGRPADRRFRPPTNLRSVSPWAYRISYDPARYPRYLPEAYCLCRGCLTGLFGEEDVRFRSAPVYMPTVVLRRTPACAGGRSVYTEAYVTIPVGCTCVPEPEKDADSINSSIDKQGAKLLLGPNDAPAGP

T9: recombinant human IL-17A/F heterodimer (human, UniProt Q16552 24-155; Q96PD4 31-163, limits assumed)
T9 construct: heterodimer of an IL-17A subunit and an IL-17F subunit; also called huIL-17A/F; rhuIL-17A/F
T9 sequence (looked up) 1: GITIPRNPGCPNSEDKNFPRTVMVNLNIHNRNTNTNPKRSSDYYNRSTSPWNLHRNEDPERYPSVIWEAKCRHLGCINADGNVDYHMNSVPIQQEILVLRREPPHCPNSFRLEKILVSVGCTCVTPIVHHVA
T9 sequence (looked up) 2: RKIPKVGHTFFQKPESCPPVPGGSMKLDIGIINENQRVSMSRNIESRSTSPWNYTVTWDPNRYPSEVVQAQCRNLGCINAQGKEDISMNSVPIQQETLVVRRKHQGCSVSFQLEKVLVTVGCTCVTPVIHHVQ

B1: XAB4 (antibody, human IgG1, kappa, V domains shown)
VH: EVQLVESGGDLVQPGGSLRLSCAASGFTFSSYWMSWVRQAPGKGLEWVANIKQDGSEKYYVDSVKGRFTISRDNAKNSLYLQMNSLRAEDTAVYYCARDRGSLYYWGQGTLVTVSS
VL: AIQLTQSPSSLSASVGDRVTITCRPSQGINWELAWYQQKPGKAPKLLIYDASSLEQGVPSRFSGSGSGTDFTLTISSLQPEDFATYYCQQFNSYPLTFGGGTKVEIKR
notes: also called MB435 N56Q
B2: XAB1 (antibody, human IgG1, kappa, V domains shown)
VH: EVQLVESGGDLVQPGGSLRLSCAASGFTFSSYWMSWVRQAPGKGLEWVANIKQDGSEKYYVDSVKGRFTISRDNAKNSLYLQMNSLRAEDTAVYYCARDRGSLYYWGQGTLVTVSS
VL: AIQLTQSPSSLSASVGDRVTITCRPSQGIISALAWYQQKPGKAPKLLIYDASSLENGVPSRFSGSGSGTDFTLTISSLQPEDFATYYCQQFNSYPLTFGGGTKVEIKR
notes: human IgG1/kappa monoclonal antibody; also called parental XAB1; XAB1 IgG

Assays:
[1] = target: T1, recombinant mouse IL-17A/F (R&D Systems …); test: cell-based or functional assay
[2] = target: T2, recombinant mouse IL-17F (SEQ ID NO: 84); test: cell-based or functional assay
[3] = target: T3, recombinant mouse IL-17A (SEQ ID NO: 83); test: cell-based or functional assay
[4] = target: T4, recombinant rat IL-17A (SEQ ID NO: 85); test: cell-based or functional assay
[5] = target: T10, recombinant human EGF (Sigma Cat#E9644) (human, UniProt P01133 971-1023); test: ELISA, coated cytokine, Ab 10 µg/ml;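 also: antibodies incubated 3 h at room temperature on the coated wells, binding detected with alkaline phosphatase-conjugated anti-IgG secondary antibodies matching the species of each test antibody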
T10 construct: also called huEGF
Method: The antibodies of the disclosure were added at 10 μg/ml (100 μl/well) for 3 h at room temperature. […] They were added at 1 or 5 μg/ml, in PBS, 0.02% NaN₃ for 3 h at RT.
Plates were then washed 4 times with PBS/0.05% Tween 20/0.02% NaN₃. Then, an alkaline phosphatase-conjugated goat anti-human IgG antibody (Sigma Cat# A9544) was added to the wells with human antibodies at a dilution of 1/20000 (100 μl/well). An alkaline phosphatase-conjugated goat anti-mouse IgG antibody (Sigma Cat# A1047) was added to the wells with mouse antibodies at a dilution of 1/10000 (100 μl/well). An alkaline phosphatase-conjugated rabbit anti-goat IgG antibody (Sigma Cat# A7650) was added to the wells with goat antibodies at a dilution of 1/1000 (100 μl/well) and an alkaline phosphatase-conjugated rabbit anti rat-IgG antibody (Sigma Cat# A6066) was added to the wells with rat antibodies at a dilution of 1/20000 (100 μl/well).

[6] = target: T1, recombinant mouse IL-17A/F (R&D Systems …); test: ELISA, coated antigen, Ab 1 µg/ml
Method: (§1) A titration of the antibodies of interest on different antigens was carried out.
(§2) Plates were then washed 4 times with PBS/0.05% Tween 20 (Sigma Cat# P7949)/0.02% NaN₃.
(§3) Plates were then washed 4 times with PBS/0.05% Tween 20/0.02% NaN₃. Then, an alkaline phosphatase-conjugated goat anti-human IgG antibody (Sigma Cat# A9544) was added to the wells that received test antibody at a dilution of 1/20000 (100 μl/well) for 2 h 30 min at RT. To the wells, that received mouse mAb, an alkaline phosphatase-conjugated goat anti-mouse IgG antibody (Sigma Cat# A7434) was added at a dilution of 1/10000 (100 μl/well) for 2 h 30 min at RT. An alkaline phosphatase conjugated mouse anti goat IgG antibody (Sigma Cat# A8062) was added to the goat antibodies at a dilution of 1/50000 (100 μl/well) for 2 h 30 min at RT. Plates were then washed 4 times and 100 μl of the substrate (p-nitrophenyl phosphate tablets; Sigma; 5 mg Cat#N9389; 20 mg Cat#. N2765) dissolved in diethanolamine buffer pH 9.8, to give a final concentration of 1 mg/ml, were added to each well.

[7] = target: T5, recombinant human IL-17E (R&D Systems …); test: ELISA, coated antigen, Ab 1 µg/ml
Method: as §1, §2, §3

[8] = target: T6, recombinant human IL-17C (R&D Systems …); test: ELISA, coated antigen, Ab 1 µg/ml
Method: as §1, §2, §3

[9] = target: T7, recombinant human IL-17B (R&D Systems); test: ELISA, coated antigen, Ab 1 µg/ml
Method: as §1, §2, §3

[10] = target: T2, recombinant mouse IL-17F (SEQ ID NO: 84); test: ELISA, coated antigen, Ab 1 µg/ml
Method: as §1, §2, §3

[11] = target: T8, recombinant human IL-17D (R&D Systems …); test: ELISA, coated antigen, Ab 1 µg/ml
Method: as §1, §2, §3

[12] = target: T9, recombinant human IL-17A/F heterodimer; test: ELISA, coated antigen, Ab 1 µg/ml
Method: as §1, §2, §3

T10 sequence (P01133 971-1023 limits assumed): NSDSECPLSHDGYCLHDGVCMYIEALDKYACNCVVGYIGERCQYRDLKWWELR

Binder	IC50, mouse KC secretion by CMT-93 cells; stimulus mIL-17A/F (3 nM) [1]	IC50, mouse KC secretion by CMT-93 cells; stimulus mIL-17F (30 nM) [2]	IC50, mouse KC secretion by CMT-93 cells; stimulus mIL-17A (1 nM) [3]	IC50, mouse KC secretion by CMT-93 cells; stimulus rIL-17A (1 nM) [4]	O.D. [5]	O.D. [6]	O.D. [7]	O.D. [8]	O.D. [9]	O.D. [10]	O.D. [11]	O.D. [12]
B1	10.3 nM	> 10 µM	13.8 nM	6.7 nM	0.126 O.D.	2.26 O.D.	0.035 O.D.	0.036 O.D.	0.034 O.D.	0.098 O.D.	0.034 O.D.	2.14 O.D.
B2	> 1000 nM	> 10 µM	539 nM	467 nM	0.062 O.D.	1.76 O.D.	0.033 O.D.	0.032 O.D.	0.049 O.D.	0.044 O.D.	0.031 O.D.	1.22 O.D.
